Reference: patent US20120316071A1 (published 2012)
Where a chain is given by its changes, count along the chain named. Numbers in names are those of the source.

B1: Fab VH5-51_IGHD5-18*01>3_IGHJ4*01 G100A & V3-4_IGLJ1*01 (Fab, V domains shown)
VH: EVQLVQSGAEVKKPGESLKISCKGSGYSFTSYWIGWVRQMPGKGLEWMGIIYPGDSDTRYSPSFQGQVTISADKSISTAYLQWSSLKASDTAMYYCARRAYSYGYDYFDYWGQGTLVTVSS
VL: QTVVTQEPSFSVSPGGTVTLTCGLSSGSVSTSYYPSWYQQTPGQAPRTLIYSTNTRSSGVPDRFSGSILGNKAALTITGAQADDESDYYCVLYMGSGISYVFGTGTKVTVL
notes: Fab with CH1 (Plasmid A, His6 and Flag tags) and lambda CL (Plasmid E)
B2: Fab VH5-51_IGHD5-18*01>3_IGHJ4*01 S102A & V3-4_IGLJ1*01 (Fab, V domains shown)
VH: B1 VH with A100G, S102A
VL: B1 VL
notes: as for B1
B3: Fab VH1-46_IGHD6-6*01_IGHJ1*01 S102A/S103P/S104F/H111F (H:APFF) & L6_IGKJ1*01 S28N/S30D/S31H (L:NDH) (Fab, V domains shown)
VH: QVQLVQSGAEVKKPGASVKVSCKASGYTFTSYYMHWVRQAPGQGLEWMGIINPSGGSTSYAQKFQGRVTMTRDTSTSTVYMELSSLRSEDTAVYYCAREEYAPFSAEYFQFWGQGTLVTVSS
VL: EIVLTQSPATLSLSPGERATLSCRASQNVDHYLAWYQQKPGQAPRLLIYDASNRATGIPARFSGSGSGTDFTLTISSLEPEDFAVYYCQQRSNWPPWTFGQGTKVEIKR
notes: Parent template of this NNK series; Fab made in E. coli: heavy chain from Plasmid A (CH1, His6 and Flag tags), kappa light chain from Plasmid C (kappa CL); also called H:APFF & L:NDH
B4: Fab VH1-46_IGHD6-6*01_IGHJ1*01 S102A/S103P/S104F/H111F (H:APFF) & L6_IGKJ1*01 S28N/S30D/S31H N53P (Fab, V domains shown)
VH: B3 VH
VL: B3 VL with N53P
notes: Fab made in E. coli: heavy chain from Plasmid A (CH1, His6 and Flag tags), kappa light chain from Plasmid C (kappa CL); also called H:APFF & L:NDH N53P
B5: Fab VH1-46_IGHD6-6*01_IGHJ1*01 S102A/S103P/S104F/H111F (H:APFF) & L6_IGKJ1*01 S28N/S30D/S31H A55S (Fab, V domains shown)
VH: B3 VH
VL: B3 VL with A55S
notes: Fab made in E. coli: heavy chain from Plasmid A (CH1, His6 and Flag tags), kappa light chain from Plasmid C (kappa CL); also called H:APFF & L:NDH A55S
B6: Fab VH1-46_IGHD6-6*01_IGHJ1*01 S102A/S103P/S104F/H111F (H:APFF) & L6_IGKJ1*01 S28N/S30D/S31H A55C (Fab, V domains shown)
VH: B3 VH
VL: B3 VL with A55C
notes: Fab made in E. coli: heavy chain from Plasmid A (CH1, His6 and Flag tags), kappa light chain from Plasmid C (kappa CL); also called H:APFF & L:NDH A55C
B7: Fab VH1-46_IGHD6-6*01_IGHJ1*01 S102A/S103P/S104F/H111F (H:APFF) & L6_IGKJ1*01 S28N/S30D/S31H A55R (Fab, V domains shown)
VH: B3 VH
VL: B3 VL with A55R
notes: Fab made in E. coli: heavy chain from Plasmid A (CH1, His6 and Flag tags), kappa light chain from Plasmid C (kappa CL); also called H:APFF & L:NDH A55R
B8: Fab VH1-46_IGHD6-6*01_IGHJ1*01 S102A/S103P/S104F/H111F (H:APFF) & L6_IGKJ1*01 S28N/S30D/S31H N53A (Fab, V domains shown)
VH: B3 VH
VL: B3 VL with N53A
notes: Fab made in E. coli: heavy chain from Plasmid A (CH1, His6 and Flag tags), kappa light chain from Plasmid C (kappa CL); also called H:APFF & L:NDH N53A
B9: Fab VH5-51_IGHD5-18*01>3_IGHJ4*01 & V3-4_IGLJ1*01 (Fab, V domains shown)
VH: B1 VH with A100G
VL: B1 VL
notes: Tested as Fab from E. coli; VH was cloned into Plasmid A, which supplies CH1 and His6 and Flag tags; The lambda VL was cloned into Plasmid E, which supplies lambda CL; also called wildtype; parent Hit Fab VH5-51_IGHD5-18*01_IGHJ4*01 & V3-4_IGLJ1*01
B10: Fab VH5-51_IGHD5-18*01>3_IGHJ4*01 Y105A & V3-4_IGLJ1*01 (Fab, V domains shown)
VH: B1 VH with A100G, Y105A
VL: B1 VL
notes: Heavy chain CDR3 alanine mutant of the parent Fab; Fab format as for the parent
B11: Fab VH5-51_IGHD5-18*01>3_IGHJ4*01 G100A & V3-4_IGLJ1*01 (Fab, V domains shown)
VH: B1 VH
VL: B1 VL
notes: as for B10
B12: Fab VH5-51_IGHD5-18*01>3_IGHJ4*01 S102A & V3-4_IGLJ1*01 (Fab, V domains shown)
VH: B1 VH with A100G, S102A
VL: B1 VL
notes: as for B10
B13: Fab VH5-51_IGHD5-18*01>3_IGHJ4*01 G104A & V3-4_IGLJ1*01 (Fab, V domains shown)
VH: B1 VH with A100G, G104A
VL: B1 VL
notes: as for B10
B14: Fab VH5-51_IGHD5-18*01>3_IGHJ4*01 Y103A & V3-4_IGLJ1*01 (Fab, V domains shown)
VH: B1 VH with A100G, Y103A
VL: B1 VL
notes: as for B10

These binders were tested against T1, Recombinant Human DLL4 (delta-like protein 4) (human, UniProt Q9NR61 27-524) (assay: ECL binding assay on immobilized DLL4, Fab at 0.04 µM).
T1 construct: Bought recombinant human DLL4 (R&D Systems Cat#1506-D4/CF); also called rHuman DLL4; Delta-like ligand 4

| Signal/Noise (0.04 µM) | Binder |
| --- | --- |
| 30.4 | B1 |
| 2 | B2 |

What follows are binders tested against T2, Recombinant Human DLL4 (delta-like protein 4) (human, UniProt Q9NR61 27-524) (assay: ELISA, DLL4 coated plate, Fab in solution; average signal minus noise).
T2 construct: Bought recombinant human DLL4 (R&D Systems Cat#1506-D4/CF), coated on the plate; also called rHuman DLL4; Delta-like 4

| ELISA (Avgerage signal-noise) | Binder |
| --- | --- |
| 0.214 | B3 |
| 0.12 | B4 |
| 0.383 | B5 |
| 0.146 | B6 |
| 0.106 | B7 |
| 0.151 | B8 |

Each binder was assayed against T3, Recombinant Human DLL4 (R&D Systems Cat#1506-D4/CF) (human, UniProt Q9NR61 27-529) (assay: ECL 96-well plate assay (MSD), 0.1 µM Fab, plate coated with 30 µg/mL DLL4).
T3 construct: Bought recombinant protein, coated on the plate; also called delta-like protein 4; rHuman DLL4

| Signal/Noise | Binder |
| --- | --- |
| 24 | B9 |
| 1 | B10 |
| 53.3 | B11 |
| 4.7 | B12 |
| 41.5 | B13 |
| 4 | B14 |

These binders were tested against T3, Recombinant Human DLL4 (R&D Systems …) (assay: ECL 96-well plate assay (MSD), 0.02 µM Fab, plate coated with 15 µg/mL DLL4).

| Signal/Noise | Binder |
| --- | --- |
| 15.2 | B9 |
| 1 | B10 |
| 24.2 | B11 |
| 1.8 | B12 |
| 12.5 | B13 |
| 1.5 | B14 |

Each binder was assayed against T2, Recombinant Human DLL4 (delta-like …) (assay: ECL (MSD) 96-well plate assay, recombinant human DLL4 coated, Fab in solution).

| ECL signal | Binder |
| --- | --- |
| 17200 | B3 |
| 18100 | B4 |
| 20000 | B5 |
| 8230 | B6 |
| 9030 | B7 |
| 14200 | B8 |
